Test: yeast display, Sf9 membrane polyspecificity reagent, FACS + sequencing; frameworks hold sequencing errors
Outline: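 In a synthetic yeast display library (Saccharomyces cerevisiae BJ5465), nanobody expression was induced with galactose for 36–48 hours. FACS gates were set low and high (top ~1%) using anti-HA fluorescence for expression and streptavidin fluorescence for binding of the Sf9 membrane reagent. Each polyreactivity label is drawn from the gate of origin.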

| Sequence | polyreactivity (PSR sort gate) |
| --- | --- |
| QDQLVESGGGLVQAGGSLRLSCAASGHIISTYAMGWYRPAPGKERQLVASISENGGTTYYADSVKGRFTISRDIAKNTVYLQMYSLKPEDTAVYYCNADAYVYFDDGDYWGQGTQVTVSS | low polyreactivity |
| QVQLVESGGGLVQAGGSLRLSCAPSGSILRYYAMGWYRQAPGKEREFVAAISWSGTSTYYADSVKGRFTISRDIAKNTVYLQMNSLKPEDTAVYYCAARTYYVPYYYWGQGTQVTVSS | high polyreactivity |
| QVQLVESGGGLVQAGGSLRLSCAASGRTFLYNAMGWYRQAPGKERELVAAIRWSGGTTYYADSVKGRFTISRDNAKNTVYLQMNSLKPEDTAVYYCAARWGPYYGGVRYGYWGQGTQVTVSS | high polyreactivity |
| QVQLVESGGGLVQAGGSLRLSCAASGSTFRPYAMGWYRQAPGKERELVAAISWSGGRTYYADSVKGRFTISRDNAKNNVYLQMNSLKPEDTAVYYCNRAGRQPKNTYDYWGQGTQVTVSS | high polyreactivity |
| QVQLVESVGGLVQAGGSLRLSCAASGRIFVYYAMGWYRQAPGKERELVAAINSSGGRTYYADSVKGRVTISRDNAKNTVSLQMNSLQPEDTAVYYCAAVYRSWTSSNGRNYWGQGTQVTVAS | high polyreactivity |
| QVQLVESGGGLVQAGGSLRLSCAASGSTIFPYAMGWYRQAPGKERELVAAITSGGNTNYADSVKGRFTISRDNAKNTVYLQMNSLKPEDTAVYYCAADYFWHYRKYDYWGQGTQVTVSS | low polyreactivity |
| QVKLVESGGGLFQAGGSLRLSCAASVSIFYGNAIVWYRQAPGKERELVAAISSRGTRTYYADSVKGRFTISRDNAKNTVYLQMNSLNPEATAVYYCAAADYRFYNGPYSRRWLYGYWGQGTQVTVSS | high polyreactivity |
| QVQLVESGGGLVQAGGSLRLSCAASGYTFAGNAMGWYRQAAGKERELVAAISRSGGRTYYADSVKGRFTISRDNAKNTVYLQMNSLNPEDTAVYYCAAYFPRTLFEFGYWGQGTQVTVSS | high polyreactivity |
| QVQLVESGGGLVQAGGSLRLSCAAYGFIFWYYDMGWYRQAPGKETELVAGITSGGSTNYEDSVKGRFTISRDNATNTVYLQMNRLKPEDTAVYYCAATYYGYHIRDDYWGQGTLVTVSS | low polyreactivity |
| QVQLVESGGGLVQAGGSLRLICAASGSTFYIYAMGWYRQAPGKERELGATISSTGSTHYADSVKGRFTISRDNAKNTVYLQMNSLKPEDTAVYYCNRVYFGRYSRRDHWGQGTQVTVSS | high polyreactivity |
| QVQLVESGGGLVQAGGSLRLSCAASGGIFRNYAMGWYRQAPGKERELVARISSAGSTNYADSVKGRFTNSRDNAKNTVYLLMNSLKPEDTAVYYCAKGWRSWAEEGHDYWGQGTQVTVSS | low polyreactivity |
| QVQLVESGGGLVQAGGSLRLSCAASGSTFAINAMGWYRQAPGKERELVAAITSGGGTNYADSVKGRFTISRDNAKNTVFLQMISLKPEDTAVYYCYGRVYWYYPMDYWGQGTQVTVSS | low polyreactivity |
| QVQLVESGGGLVQAGGSLRLSCAASGLTYWAYAMGWYRQAPGKERDFVAAISWSGDSTYYADSVKGRYTISRDNAKNTVYLQMNSLKPEDTAVYYCAAEWYYVYIAPYDYLGQGTQVTVSS | low polyreactivity |
| QVHLVESGGGLVQAGGSLRLSCAASGRIFRRYAMGWSRQAPGKERELVAAISSGGSTYYADSVKGRFTISRDNAKNTVYLQMNSLKPEDTAVYYCNAKVGAYLNYGYWGQGTQVTVSS | low polyreactivity |
| QVQLVESGGGLVQAGGSLRLSCAASGRIFVPNPMGWYRQAPGKDRELVAAITNGGRTKYADSVKGRFTISRDNAKNTVYLQMNSLKPEDTAVYYCAADLYRWFYYWGQGTQVTVSS | high polyreactivity |
| QVQLVESGGGLVQAGGSLRLSCAASGIIFSPYAMGRYRQAPGKERELVAAITYSGDTTYYADSVKGRFTISRDNAKNTVYLQMNSLKPEDTAVYYCAVEDAGQGGDYWGQGTQVTVSS | low polyreactivity |
| QVQLVESGGGLVQAGGSLRLSCAASGGTFRYNAKGWYRQAPGKERELFATISIRGASTYYADSVKGRITISRDNAKHSVYLQLNSLKPEDTAVFYCAAERRNSYVLLIKYNYWGQGTQVTVSS | low polyreactivity |
| QVQLVESGGGLVQAGGSLRLSCAASGFTFSLYAMGWYRQAPGKERELVARISDSGGGTYYADSVKGRFTISRDNAKNTVYLQMNSLKPEDTAVYYCAAVSVWYVTSTSYRYWRYDYWGQGTQVTVSS | high polyreactivity |
| QVQLVESGGGLVQAGGSLRLSCAASGITFDYYAMGWYRPAPGKERELVAAISGSGARTYYADSVKGRFTISRDTAKNTFYLQMNSLKPEDTAVYYCAAEYYTVPPGGIEDYWGQGTQVTVSS | high polyreactivity |
| QFQLVESGGGLVQAGGSLRLSCAASGIISSVYAMGWYRQAPGKERELVAAISGSGGSTYYADSVKGRFTISRDNAKNTVYLQMNSLKPEDTAVYYCAKGYQYQGNSYGYWGQGTQVTVSS | low polyreactivity |
| QVQLVESVGGLVQAGGSLRLSFAASGRTFVWYVMGWYSQAPVKERELVAAISLRGGTTYYADSVKGRFTISRDNAKNTVYLQMNSLKPEDTAVYYCAIAGIRHVTSKFKGYHFGYWGQGTQVTVSS | low polyreactivity |
| QVQLVESGGGLVQAGGSLRLICDASGSTFYRYAMGWYRQAPGKERELVAAISRSGGRTYYADSVKGRFTISRDNAKNTVYLQMNSLKPEDTADYYCAADVGPKQDATHDYWGQGTQLTVSS | high polyreactivity |

| Sequence | polyreactivity (PSR sort gate) |
| --- | --- |
| QVQLVESGGGLVQAGGSLRLSCAASGSIFRVYAMGWYRQAPGKERELVAGISSRGGTSTYYADSVKGRFTISRDNAKNTVYLQMNSLKPEDTAVYYCAVQVRYPGYDYWGQGTQVTVSS | low polyreactivity |
| QVQLVESGGGLVQAGGSLRLSCAASGSTFRYNAMGWYRQAPGKERELVAAISKGGGRTYYADSVKGRFTISRDNAKNTVYLQMNSLKPEDTAVYYCAATYGTGRRSKYGYWGQGTQVTVSS | high polyreactivity |
| QVQLVESGGGLVQAGGSLRLSCAASGSIFGGYAMGWYRQAPGKEREFVAAISRRGASTYYADSVKGRFTISRDNAKNTVYLQMNSLKPEDTAVYYCNARAYGRIDGHSATYGYWGQGTQVTVSS | high polyreactivity |
| QVQLVESGGGLVQAGGSLRLSCDASGYIFNYAMGWYRQAPGKERELVPAISRRGGSTYYADSVKGRFTISRDNAKNTVYLQMNSLKPEDTSVYYCAADRFRRLHYWTYDYWGKGTQVTVSS | high polyreactivity |
| QVQLVESGGGLVQAGGSLRLSCAASGNTFYKYAMGWYRQAPGKERELVADISWSGGSTYYADSVKGRFTISRDNAKNTVYLQMNSLKREDTAVYYCNADTPVWDGHAYPVDYWGQGTQVTVSS | low polyreactivity |
| QVQLVESGGGLVQAGGSLRLSCAASGRIFGKNDMGWYRQAPGKEREFVATIDWSGGSTYYADSVKGRFTISRDNAKNTVYLQMNSLKPEDTAVYYCAASGWNRYLFDYWGQGTQVTVSS | low polyreactivity |
| QVQLVESGGGLVQAGGSLRLSCAASGSTFHGYAMGWYRQEPGKERELVAAITSGDSTNYADSVKGRFTISRDNAKNTVYLQMNSLKPEDTAVYYCNAEGSSVLTGYWGYPPYWDTYDYWGQGTQVTVSS | low polyreactivity |
| QVQLVESGGGLVQAGGSLRLSCAASGSTFYHYAMGWYRQAPGKERELVAAISWSGGSTYYADSVKGRFTISRDNAKNTVYLQMNSLKPEDTAVYYCNKAGRSWFRTGLGYWGKGTQVTVSS | high polyreactivity |
| QVQLVESGGGLVLAGGSLRLSCAASGFIFDIYAMGCYRQAPGKERELVASITWDDGSTYYADSVKGRFTISRDNAKNTVYLQMNSLNPEDTAVYYCAADFEAGGYSLDYWGHGTQVTVSS | low polyreactivity |
| QVQLVESGGRLVQAGGSLRIICAASGIIFFHYAMGWYRQAPGKERELVAAITCSGGSTYYADSVKGRFTISRDKAKNTVYLHMNSLKPEDTAVYYGNAVLHRRLYDYWGQGTQVTVSS | high polyreactivity |
| QVHLVESGGGLVQAGGSLRLSCAASGSTFDDNTMGWYRQAPGKERELVAAISSDSSTNYADSVKGRFTISRDNAKNTVYLQMNSLKPEDTAVYSCATRSRTTKIVRWPGMYYWGQGTQVTVSS | high polyreactivity |
| QVQLVESGGGLVQAGGSLRLSCAASGSIFGYYAMGWYRQAPGKEREFVAAIRSSGGSTYYADSVKGRFTISRDNAKNTVYLQMNSLKPEDTAVYYCAAGGYPTFFKYGYWGQGTQVTVSS | high polyreactivity |
| QFQLVESGGGLVQAGGSLRLSCAASGRIFSHYAMGCYRQAPGKERELVAAISSGGITYYADSVNGRFTISRDNAKNTVYLQRNSLKPEDTAVYYCAAVRRRGTTYDYWGQGTQVTVSS | high polyreactivity |
| QVQLVESGGVLVQAGGSLRLSCAASGFTFVSNDMGWYRQAPGKERELVAAIRYRGGDTYYADSVKGRFTISRDNAKNTVYLQMNSLKPEDTAVYYCATGKRAYSSYLFDYWGQGTQVTVSS | low polyreactivity |
| QVQLVESGAGLVQAGGSLRLSCAASGSSFYFNAMGLYRQAPGKERELVAAIDWSGGSTYYADSVKGRFTISRDNAKNTVYLQMNSLKPEDTAVYYCAAPYHYYGNTVGYADYDYWGQVTQVTVSS | low polyreactivity |
| QVQLVESGGGLVQAGGSLRLSCAASGSIFGYNTMGWYRQAPGKERELVAAISRGGSTNYADSVKGRFTISRDNAKNTVYLQMNSLKPEDTAVYYCAKRRWRQTTYSKGYDYWGQGTQVTVSS | high polyreactivity |
| QVQLVESGGGLVQAGGSLRLSCAASGRTFNCYAMGWYRQAPGKERELVAAISNGGNTNYADSVKGRFTISRDNAKNTVYLQMNSLKPEDTAVYYCAARATPAFSRRGYYWGQGTQVTVSS | high polyreactivity |
| QVQLVESGGGLLQAGGSLRLSCAASGRIYWNDMAWYRQAPGKERELVAAISWGGDRTYYADSVKGRFTISRDNAKNTVYLQMNSLKPEDTAVYYCNAPGYLTYDHSYDYWGQGTQVTVSS | low polyreactivity |
| QVHLVESGGGLVQAGGSLRLSCPASGRIFAIYAAMGWTRQAPGKERELVAAISSGDNTNYADSVKGRFTISRDNAKNTVYLQLNSLKPDDTAVYYCNTNYGPTHRARYYYWGQGTQVTVSS | low polyreactivity |
| QVQLVESGGGLVQAGGSLRLSCAASGRIFRGYAMGWYRQAPGKERELVAAINGGDSTYADSVKGRFTISRDNAKNTVFLQMNSLIPEDTAVYYCAAAHYFLGPQGASFYYWGQGTQVTVSS | low polyreactivity |
| QVQLVESGGGLVQAGGSLRLSCAASGRIFNYYAMGWYRQAPGKERELVATISRNGGRTYYADSVKGRFTISRDNAKNTVYLQMNSLKPEDTAVYYCATDGLYRYDYWGQGTQVTVSS | high polyreactivity |

From the nanobody polyreactivity screen of Harvey et al. (2022)
